Among the data in patent US20200353003A1 are killing of target cells expressing BDCA2 (reporter-BDCA2 and RS4-11-BDCA2) by NK and T cells expressing BDCA2-CAR, flow cytometry based cytotoxic assay, E:T=1:1 values, retold here.

The test has as its target BDCA2 antigen (CLEC4C, CD303) expressed on transduced RS4-11 and A95-KK reporter cells (UniProt Q8WTT0). The test can be described thus: cell-based or functional assay.
Sequence of UniProt Q8WTT0 (Q8WTT0 whole entry): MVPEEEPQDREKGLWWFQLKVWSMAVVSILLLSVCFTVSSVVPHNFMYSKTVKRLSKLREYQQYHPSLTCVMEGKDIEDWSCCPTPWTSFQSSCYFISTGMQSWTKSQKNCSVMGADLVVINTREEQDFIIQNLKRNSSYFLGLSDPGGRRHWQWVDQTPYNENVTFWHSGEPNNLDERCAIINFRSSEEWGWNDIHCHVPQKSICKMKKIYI

B1: BDCA2 CAR (chimeric antigen receptor specific for BDCA2, with aBDCA2-scFV as binder) (protein, part only; not given: hinge, transmembrane and signaling domains, not shown: another chain or arm of the molecule; a dimerising Fc or GST)
scFv: DIQMTQSPSSVSASVGDRVTITCRASQEISGYLSWYQQKPGKAIKRLIYAASTLDSGVPSRFSGSRSGTDFTLTISSLQSEDFATYYCLQYASYPPTFGGGTKLEIKGGGGSGGGGSGGGGSQVTLKESGPTLVKPTQTLTLTCTFSGFSLSTSGMGVGWIRQPPGKALEWLAHIWWEDDKYYNPSLKSRLTITKDTSKNQVVLTMTNMDPVDTATYYCTRNWDYYTMDYWGQGTTVTVSS
In the case of B1, the killing of target cells expressing BDCA2 (reporter-BDCA2 and RS4-11-BDCA2) by NK and T cells expressing BDCA2-CAR, flow cytometry based cytotoxic assay, E:T=1:1 was > 70%.
